This is an account of results in paper PMC10761944, “Modular assembly of an artificially concise biocatalytic cascade for the manufacture of phenethylisoquinoline alkaloids” (Nature Communications, 2024).

The Km is the substrate concentration at which the rate is half of its maximum. One may read the kcat as the maximal rate divided by the concentration of active sites.

One series has as its target T1, TfNCS (Thalictrum flavum, UniProt C3SBV6).
T1 construct: codon-optimised synthetic gene, E. coli BL21(DE3), Ni-NTA purified
Nature of the series: product by HPLC, coupled to TpCAR. As to conditions: 1a formed in situ from 1 by TpCAR; co-substrate dopamine; HEPES pH 7.5, 30 °C. The class given is biochemical.

Another series addresses T2, RnCOMT (Rattus norvegicus, UniProt P22734).
T2 construct: gene Comt; codon-optimised synthetic gene, E. coli BL21(DE3), Ni-NTA purified
T2 sequence (P22734 1-264): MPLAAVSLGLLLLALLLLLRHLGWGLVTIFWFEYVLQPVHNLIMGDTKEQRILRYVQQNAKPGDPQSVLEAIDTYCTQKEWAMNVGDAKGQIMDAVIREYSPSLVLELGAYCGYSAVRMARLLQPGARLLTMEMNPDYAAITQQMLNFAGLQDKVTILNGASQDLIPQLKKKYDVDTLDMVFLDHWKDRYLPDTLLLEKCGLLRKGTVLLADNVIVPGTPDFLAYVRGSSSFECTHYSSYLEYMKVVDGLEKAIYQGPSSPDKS
Nature of the series: conversion by HPLC. The series is classed as biochemical. As to conditions: 4 mM SAM, 10 mM MgCl2, HEPES pH 7.5, 30 °C, 2 h.

In the next series the target is T3, CNMT (Coptis japonica, UniProt Q948P7).
T3 construct: codon-optimised synthetic gene, E. coli BL21(DE3), Ni-NTA purified
Nature of the series: product titer by HPLC, coupled to RnCOMT. The series is classed as biochemical. The settings on record: SAM; (S)-1c formed in situ from 2 mM (S)-1b; HEPES pH 7.5, 30 °C, 4 h.

Series [1] relates to COc1cc(CC[C@@H]2NCCc3cc(O)c(O)cc32)cc(O)c1OC. Kind of series: initial rates by HPLC, Michaelis-Menten fit. The class given is biochemical, Gloriosa superba. As to conditions: SAM as methyl donor, 200 mM potassium phosphate pH 7.5, 30 °C.

For the compound `COc1cc(CCC=O)cc(OC)c1OC` [1a], the “product by HPLC, coupled to TpCAR” value on TfNCS is recorded as “(S)−1b was efficiently synthesized without the accumulation of intermediate 1a”.

Consider `COc1cc(CC[C@@H]2NCCc3cc(O)c(O)cc32)cc(OC)c1OC` [(S)-1b], for which the “conversion by HPLC” value on RnCOMT is given as “the enzymatic activity of RnCOMT towards (S)−1b was much better than that of GsOMT1”.

As for `COc1cc2c(cc1O)[C@H](CCc1cc(OC)c(OC)c(OC)c1)NCC2` [(S)-1c], the “product titer by HPLC, coupled to RnCOMT” value at CNMT is “CNMT showed a very weak catalytic activity towards (S)−1c”.

GsOMT1 (Gloriosa superba): in series [1], the Km was 630 ± 50 µM and the kcat worked out at 4.56 ± 0.24 s⁻¹.

Regarding GsOMT1 (Gloriosa superba; V125Q), in series [1], the Km was found to be 330 ± 20 µM and the kcat turned out to be 8.65 ± 0.26 s⁻¹.
